Assay results published in the domain aggregation screens of Martell et al. (2025).
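Note: 20 min heating vs room temperature control held 20 min.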

Experiment: soluble fraction after stress (log2 fold change); higher = more stays soluble; pooled small domains, quantitative proteomics
Settings: stress: 75 degC
In the case of “HMTYNIPEHYQTIDVKEYVRKLVSDGDSDQIGRVEMELTEFETRNLFPVLKVLIYIIDTMRK”, the “soluble fraction (log2)” value is reported as -3. With “HMTYQTVRYGSTGSAVRQLQSALNQKGYQLSEDGIFGAKTRAAVRDYQKKNGLLLDGIAGSQTWNHLMS” the “soluble fraction (log2)” value was -0.179. For “HMTYSSESVRYRIKSLIDNETIDEILSDDKIVNILKSQGIDVARRTVAKYREAMGLASSIQRRREKKSA”, the “soluble fraction (log2)” value was -0.707. In the case of “HMVAGGTVSRKLSIETGLPKRKSLIGSWLDQNSVWHNIISVRHRNGYGDGVNYGFYLRSLLTSEGNLAW”, the “soluble fraction (log2)” value is reported as -0.0583. In the case of “HMVAGHLQTKKGYYYIVLNMRTDTGARKTKWIATGIPEGGKKNLKQAEELLAKTRYTYEDMVI”, the “soluble fraction (log2)” value is reported as -2.52. For “HMVAPKTEEQQKMFLESIVTKRQAETLIEKYPNIVQDIIDGTDNVDLANLKGIGEHTYNLIKEKVLSNY”, the “soluble fraction (log2)” value was 0.546. With “HMVAPPILNITTHIFAEEADLRMVMINGVTRREGDSLGENHRLLEITERGLILIFHNKQYTLDV” the “soluble fraction (log2)” value was -4.32. With “HMVAQEVPYSTFVMRLDRNEVDAVKIIDGNEIEGTFKSPNGDLVQFKTLIPYQDTELMPLLKQKGVRISGS” the “soluble fraction (log2)” value was 0.427. For “HMVARPVLQIGSTGADVTAIQARLGVSQTGYFGVLTAAAVTNFQRSNGIAASGKVGATTWAKLMQSA”, the “soluble fraction (log2)” value was -2.37. For “HMVAVSQEEATKMALERVSGASAQDIRIQLEFDDGIQKYEGDIIYNGREYEFEIDANTGTFLEWSEERA”, the “soluble fraction (log2)” value was -0.176. In the case of “HMVDETDVPTFTDMTLEEAQNEAKQRNLKLEITESPSDKEKDTILEQDPEPGKTVASGSTVKLTVSNGEE”, the “soluble fraction (log2)” value is reported as -0.157. In the case of “HMVDFHAAYSILRIAPGASWQEIQAAYEKLNDAWREDRYPQVPFWNEKAAFKRREVEQAYEKLRKFHALRH”, the “soluble fraction (log2)” value is reported as -2.43. In the case of “HMVDFVNVVVPVKANYGGEAVVEFLDERLSEFGTEGIYRIELQGETMENPSPDYSQLKAKYHISEIVDRT”, the “soluble fraction (log2)” value is reported as 0.0718. For “HMVDKDFKPLYASLERLDSTSIIEILDSNRIDYRIDQRSGALLVDADQIHQARLSLASAGMPA”, the “soluble fraction (log2)” value was -0.263. With “HMVDLANIDPIASSIKLNGAEADASFNTLEDRRVSVSGSFEENKNYTMEYTFKDYAGGSVTGTLDFKTLA” the “soluble fraction (log2)” value was 0.36. For “HMVDLAPTEEIIKNLPNNSRSLLIPTLQKIQNAYRYLPSPAMELLSEFLNVTRAEIYGVISFYPSLL”, the “soluble fraction (log2)” value was 0.173. With “HMVDLLDETLIEFYAFANNLIKDLETNSEKYGGMSQFEKELIFNEQITQYQRKLKIDLQDEVG” the “soluble fraction (log2)” value was -1.8. For “HMVDPRLRSLTPQERRILEHIAEGLTNRQIAEDMFLAEKTVKNYVTSILDKLGMDSRTQAAVYAATHPT”, the “soluble fraction (log2)” value was -0.483. In the case of “HMVDSTDLIPLLIKVSREKQGNKKLNWGEWLKIPENIYLKQINENIARKVFEDTNDLIDEAVNYINRKRRN”, the “soluble fraction (log2)” value is reported as -0.963. With “HMVDTEVFSRLLRKVLAGDVTSAIRILEELIVGGRELSQFVGDFTWYMRNLLLVKTSDNPEEA” the “soluble fraction (log2)” value was -0.463. For “HMVDYYEILGVSPDASRKDIENAWRKKMREAHPDMGGSEDKAQLLNEAHKVLSDESARAEYDASR”, the “soluble fraction (log2)” value was 0.181. For “HMVELPDLIGKSKRLAFTQLEISGLKIGKIIYEPDLAKDAVLKILYNGKIVKAGEQLPRFATVDLVLG”, the “soluble fraction (log2)” value was -2.11. For “HMVEMIGLQMVGKSGIASTVLRPSGKVRIDGVVYDAVSEDGFIEKGQAVKVLRYETGQVYVEKL”, the “soluble fraction (log2)” value was -0.727. For “HMVEPIEESISQLSLLLQSLYEDGKSEVSFEELIRSDRSRVSLFLALLFMAQRGNVYLEQEELFGDLRVKN”, the “soluble fraction (log2)” value was 0.0329. With “HMVEREYRLEVPPEAEGKRLDQFLVNQPVQLSRSQVQHLIQNGLVLVNAKTRRSSYRVHTGDIIEMQVPA” the “soluble fraction (log2)” value was 0.121. In the case of “HMVERQVTVPNLTGLGVADAQRLAQSMELDIEVLGEQESTDARPGAVLQQTPGAGTRAAAGSVVSVLV”, the “soluble fraction (log2)” value is reported as 0.201. In the case of “HMVEVPEQLRDLLERSIEDLAELSVRSRNSLQKENIQTLGDLVQRTEEEMLGIENFGKKSLTEIAAFL”, the “soluble fraction (log2)” value is reported as -0.217. With “HMVEYFDDENLDAFIGRESDSYTEKEIEQFREILYTMNQKEVADWNRSLTIRGINIPNDLKDEMIMMI” the “soluble fraction (log2)” value was -0.225. In the case of “HMVEYIENINLSEKQKFIAHEILKEIRGRAIFLRDVGLDYLNLSRKAGTLSGGEAQRIRLATQIGSA”, the “soluble fraction (log2)” value is reported as 0.198. In the case of “HMVFKSAQEGLDFYSKQLNDVDATLGRIRRGEESGNGLYGSNRVKNLEEQRKKLDSFVTAYRNAVNAT”, the “soluble fraction (log2)” value is reported as 0.0212. In the case of “HMVFTEEEMLEKIKEYLSTNSYINRRAMETLFNLRQSTALKWLGHFTEIGVLRKEGERNYPVYFLNN”, the “soluble fraction (log2)” value is reported as -0.972. For “HMVGADTISDLISQRGRMIGDKPITNAVIKSGSEFSTINALSKAIASGDARTNDVEGMKPVFR”, the “soluble fraction (log2)” value was -0.126. With “HMVGKGASIILDRVNLPQYLEKFNEDGFDTIESLKNLNEIDLKEMGVKKGHIRVILNYLHEEY” the “soluble fraction (log2)” value was -0.421. With “HMVGLKWYDTGNKKPPIGTEYKNTELSEALKGHDRKEFTWKELDVLGVNITDKEQYIVVGENYYTQV” the “soluble fraction (log2)” value was 0.0506. For “HMVGPAHIGLAVAKDQLPHWERHLTANGVEIEGRMRWDHGGESIYFRDPDAHLLELVTPGIWAN”, the “soluble fraction (log2)” value was 0.0383. For “HMVGVDMTVKEEVGKEGVTFTDLRPAGKVEIGNDIYDAVSNTGAFIQKGEKVKIIKYQAGQVYVEKLV”, the “soluble fraction (log2)” value was 0.00838. For “HMVIANADVRAKFSKGKDSFVKYYFKEKVLKDGFTEEVKNNIVQALFYLQIVTRIDGESGVLIIDY”, the “soluble fraction (log2)” value was 0.123. For “HMVIDETVLIDLFERLAEDDRPQRVAFRYILALVLLRKRTLQLIGREDEDDGEIWLLRFKGTDGEPIRV”, the “soluble fraction (log2)” value was -0.463. In the case of “HMVIGKHSGSHTLVNDLAKRGITLDKEESATLLEMVRKAAVGLHRSISSDELYGLYKDMKSGQDPFEDS”, the “soluble fraction (log2)” value is reported as 0.139. For “HMVINVKEILERIKLVKGFHTQIEIARFLGVSKGTISNWLARNSVDFPLVISKLDGVDLNWLFTGIGMPQ”, the “soluble fraction (log2)” value was -3.77. In the case of “HMVISNDEFEDYLNRATEQLVSELSSGKNPRDAVHDLALTFADQHNKSYDAYQRMADSLEARMHTL”, the “soluble fraction (log2)” value is reported as 0.0871. In the case of “HMVITEQTVTVKYLYEDDTEAAPEHSETHKTGETFEIESPKIDGFTPDYELITGTIANDDLVYIVRYKTTP”, the “soluble fraction (log2)” value is reported as -0.487. With “HMVITQVSTTQTDTTFQYHKVKPKETLFSISRLYEVSIDEIKTINPALNSRELMAGELLKLPIK” the “soluble fraction (log2)” value was -1.4. With “HMVKGIVPNLIGKTQDEAKQMAEEYGFSIGTVSEKASDKPKGTVIEQSPKAGAKASGVTSINIVVSDGS” the “soluble fraction (log2)” value was -0.121. With “HMVKKYEKVKEYLLERILDGTYVPDLPIPPERELASLLDVNRMTVRRAVEELMYDGYLIRKKGSGTYLTR” the “soluble fraction (log2)” value was -1.6. With “HMVKLSVGDIVQFAGGPHYVSSSAAKPASSPTAGPAKVTMIYQGAKHPYHIVHTTSASTVWGWVDADKVVK” the “soluble fraction (log2)” value was 0.0767. For “HMVKNLRKLREELGLTQQRLAELTGISKSRIYSYESLDREPDIAGLITLADFFSVSIDYLVGK”, the “soluble fraction (log2)” value was -2.66. In the case of “HMVKPKIILADIGMITETDVTLAKASQAVLIAFNVKPSKEAKKLAEDENIKISTYNIIYEVLDFVKKSMSG”, the “soluble fraction (log2)” value is reported as 0.304. With “HMVLALRGIVQGGAEPLVILSDGRTSQSLAVGERFLAYEVVEIGRTGVRLRGPEGEIWLAMASF” the “soluble fraction (log2)” value was -1.2. For “HMVLANLQAAEQGDLGIKEGEKLTILQTRPDGWWTARNANGETGLVPK”, the “soluble fraction (log2)” value was 0.186. In the case of “HMVLFDLSEREKEVLKLLADGNSYKMIASRLEITYFTVNAHLKKIYEKLQVHSASEAVSVALRNSL”, the “soluble fraction (log2)” value is reported as -1.19. With “HMVLIQNEDVKDISNYPLLSSVPVFDVFNNKMIIPTFNKDSFNPLIYNFNFNSKRRLIYRVDNTNYLIVIK” the “soluble fraction (log2)” value was 0.0494. In the case of “HMVLMPIDALRGSSSSSEMRIAAVKFSPSKGWYFSLQERSDEGSSYYEQKVASDGSVSERVKVR”, the “soluble fraction (log2)” value is reported as -0.58. With “HMVLNVMIEEEVHREIIAAISKLPKERRRVVELSMAGFSQEEIAEKMAISVNTVKTIKLRAYRVLRERLKG” the “soluble fraction (log2)” value was -3.78. For “HMVLPELRLQGLPTAVLRLINRATALADDYRRLMEIAEDGRIDEWEAPEFERISENIQRVIAAGFEVL”, the “soluble fraction (log2)” value was 0.0637.
